The text below walks through data of US20030059769A1.

For this experiment, the target named is LS-Rg, chimeric protein of the extracellular domain of human L-selectin joined to the Fc domain of a human G2 immunoglobulin (human) (UniProt P14151). Nature of the experiment: competition of unlabeled antibody against radiolabeled 2'-F RNA ligand LF1807 on purified LS-Rg.
Chain of LS-Rg, chimeric protein of the extracellular domain of human L-selectin joined to the Fc domain of a human G2 immunoglobulin (human) (P14151 39-332, stated change not applied): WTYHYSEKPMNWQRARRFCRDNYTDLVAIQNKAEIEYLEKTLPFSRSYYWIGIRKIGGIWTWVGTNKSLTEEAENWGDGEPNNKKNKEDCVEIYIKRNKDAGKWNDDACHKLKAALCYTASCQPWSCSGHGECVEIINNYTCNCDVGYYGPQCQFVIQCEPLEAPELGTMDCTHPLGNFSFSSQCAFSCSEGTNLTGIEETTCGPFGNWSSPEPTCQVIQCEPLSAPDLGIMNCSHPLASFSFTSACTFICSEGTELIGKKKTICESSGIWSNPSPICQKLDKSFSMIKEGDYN

Substance “DREG-56, L-selectin specific blocking monoclonal antibody” displayed a concentration for complete inhibition of 300 nM.
